In experiment [1] the target is T1, [D-Trp6]LHRH (Homo sapiens, UniProt P01148, D-Trp6 analog, 125I-labeled radioligand). The experiment in a line: radioligand competition assay, tumor membranes (patient 30).
The target in experiment [2] is T1, [D-Trp6]LHRH. The experiment in a line: radioligand competition assay, tumor membranes (patient 12).
The target in experiment [3] is T1, [D-Trp6]LHRH. The experiment in a line: radioligand competition assay, tumor membranes (patient 35).
Experiment [4] deals with T1, [D-Trp6]LHRH. The experiment in a line: radioligand competition assay, tumor membranes (patient 6).
Experiment [5] has as its target T1, [D-Trp6]LHRH. The experiment in a line: radioligand competition assay, tumor membranes (mean of 7 specimens).
The target of experiment [6] is T1, [D-Trp6]LHRH. The experiment in a line: radioligand competition assay, tumor membranes (patient 9).
The target in experiment [7] is T1, [D-Trp6]LHRH. The experiment in a line: radioligand competition assay, tumor membranes (patient 4).
The target of experiment [8] is T1, [D-Trp6]LHRH. The experiment in a line: radioligand competition assay, tumor membranes (patient 15).

The record followed here is article PMC3858558 (2013).

B1: type I LHRH receptor (protein)
chain: MANSASPEQNQNHCSAINNSIPLMQGNLPTLTLSGKIRVTVTFFLFLLSATFNASFLLKLQKWTQKKEKGKKLSRMKLLLKHLTLANLLETLIVMPLDGMWNITVQWYAGELLCKVLSYLKLFSMYAPAFMMVVISLDRSLAITRPLALKSNSKVGQSMVGLAWILSSVFAGPQLYIFRMIHLADSSGQTKVFSQCVTHCSFSQWWHQAFYNFFTFSCLFIIPLFIMLICNAKIIFTLTRVLHQDPHELQLNQSKNNIPRARLKTLKMTVAFATSFTVCWTPYYVLGIWYWFDPEMLNRLSDPVNHFFFLFAFLNPCFDPLIYGYFSL
Regarding B1, the Kd in experiment [D-Trp6]LHRH [1] was 6.36 nM; in experiment [D-Trp6]LHRH [2], 6.03 nM; in experiment [D-Trp6]LHRH [3], 2.18 nM; in experiment [D-Trp6]LHRH [4] it was 1.37 nM; in experiment [D-Trp6]LHRH [5] it was 3.69 nM; in experiment [D-Trp6]LHRH [6] it was 3.73 nM. Moreover, the values for the Kd in experiment [D-Trp6]LHRH [7] and in experiment [D-Trp6]LHRH [8] were 1.35 nM and 4.81 nM, respectively.
